# Reference: PMC7718258, “A substrate binding model for the KEOPS tRNA modifying complex”
# T1: mjCgi121 (Methanocaldococcus jannaschii, UniProt Q57646 1-145)
# T1 sequence: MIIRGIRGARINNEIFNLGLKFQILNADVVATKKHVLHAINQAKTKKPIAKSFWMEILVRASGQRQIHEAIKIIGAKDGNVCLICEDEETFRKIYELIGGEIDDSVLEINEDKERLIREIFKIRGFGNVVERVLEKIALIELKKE
# T2: mjKae1 (Methanocaldococcus jannaschii, UniProt Q58530 1-332)
# T2 sequence: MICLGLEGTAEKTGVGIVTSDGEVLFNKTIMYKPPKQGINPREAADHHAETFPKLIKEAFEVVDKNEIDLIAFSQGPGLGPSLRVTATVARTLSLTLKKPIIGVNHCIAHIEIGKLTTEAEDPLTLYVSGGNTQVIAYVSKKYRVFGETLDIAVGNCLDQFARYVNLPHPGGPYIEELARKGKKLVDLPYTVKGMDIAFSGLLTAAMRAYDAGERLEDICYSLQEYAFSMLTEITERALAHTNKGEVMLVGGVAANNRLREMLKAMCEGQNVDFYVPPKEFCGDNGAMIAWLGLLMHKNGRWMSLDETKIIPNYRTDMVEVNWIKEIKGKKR
# T3: mjCgi121;mjBud32 (Methanocaldococcus …, UniProt Q57646;Q58530 1-145;333-535, |)
# T3 sequence 1: T1 sequence
# T3 sequence 2: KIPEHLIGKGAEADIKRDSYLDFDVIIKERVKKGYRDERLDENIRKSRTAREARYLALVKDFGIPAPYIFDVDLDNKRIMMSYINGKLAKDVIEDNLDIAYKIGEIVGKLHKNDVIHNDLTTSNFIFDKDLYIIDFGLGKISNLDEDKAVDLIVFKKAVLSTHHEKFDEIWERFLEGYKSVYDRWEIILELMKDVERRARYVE
# T4: mjCgi121;mjBud32;mjKae1 (Methanocaldococcus …, UniProt Q57646;Q58530;Q58530 1-145;333-535;1-332, ||)
# T4 sequence 1: T1 sequence
# T4 sequence 2: T3 sequence 2
# T4 sequence 3: T2 sequence
# T5: mjBud32 (Methanocaldococcus jannaschii, UniProt Q58530 333-535)
# T5 sequence: T3 sequence 2
# B1: 647-CCA (ssRNA)
# RNA: CCGCCA
# B2: CCA-oligo (ssRNA)
# RNA: CCCGCCA
# B3: inverted oligo (ssRNA)
# RNA: ACCGCCC
# Key:
# TPRKB = TPRKB (Homo sapiens, UniProt Q9Y3C4 1-175); assay: fluorescence polarization; 20 mM HEPES pH 7.5, 100 mM NaCl, 2 mM DTT; filter binding 50 nM 32P-tRNA, 1 h, room temperature; FP 50 nM 647-CCA; NMR 25 C with 10% D2O; details: protein: recombinant; tags: GST removed by TEV; label: 5' Alexa-647; single strand
# mjCgi121 [1] = target: T1, mjCgi121; assay: as above; details: protein: recombinant; tags: GST removed by TEV; label: 5' Alexa-647; single strand
# mjKae1 = target: T2, mjKae1; assay: as above; details: protein: recombinant; tags: GST removed by TEV; label: 5' Alexa-647; single strand
# mjCgi121;mjBud32 = target: T3, mjCgi121;mjBud32; assay: as above; details: protein: recombinant;recombinant; tags: GST removed by TEV;His6 removed by TEV; copies: 1;1; label: 5' Alexa-647; single strand
# scQri7 = scQri7 (Saccharomyces cerevisiae, UniProt P43122 30-407); assay: as above; details: protein: recombinant; tags: His6 removed by TEV; label: 5' Alexa-647; single strand
# TPRKB;PRPK = TPRKB;PRPK (Homo sapiens;Homo sapiens, UniProt Q9Y3C4;Q96S44 1-175;1-253, |); assay: as above; details: protein: recombinant;recombinant; tags: GST removed by TEV;GST-His6 removed by TEV; copies: 1;1; label: 5' Alexa-647; single strand
# mjCgi121;mjBud32;mjKae1 = target: T4, mjCgi121;mjBud32;mjKae1; assay: as above; details: protein: recombinant;recombinant;recombinant; tags: GST removed by TEV;His6 removed by TEV;GST removed by TEV; copies: 1;1;1; label: 5' Alexa-647; single strand
# TPRKB;PRPK;OSGEP;LAGE3 = TPRKB;PRPK;OSGEP;LAGE3 (Homo sapiens;Homo sapiens;Homo …, UniProt Q9Y3C4;Q96S44;Q9NPF4;Q14657 1-175;1-253;1-335;1-143, |||); assay: as above; details: protein: recombinant;recombinant;recombinant;recombinant; tags: GST removed by TEV;GST-His6 removed by TEV;;His; copies: 1;1;1;1; label: 5' Alexa-647; single strand
# mjBud32 = target: T5, mjBud32; assay: as above; details: protein: recombinant; tags: His6 removed by TEV; label: 5' Alexa-647; single strand
# mjCgi121 [2] = target: T1, mjCgi121; assay: competition; displacement of 32P-tRNA, filter binding, 5 uM protein; 20 mM HEPES pH 7.5, 100 mM NaCl, 2 mM DTT; filter binding 50 nM 32P-tRNA, 1 h, room temperature; FP 50 nM 647-CCA; NMR 25 C with 10% D2O; details: protein: recombinant; tags: GST removed by TEV; single strand
# scQri7, sequence (P43122 30-407): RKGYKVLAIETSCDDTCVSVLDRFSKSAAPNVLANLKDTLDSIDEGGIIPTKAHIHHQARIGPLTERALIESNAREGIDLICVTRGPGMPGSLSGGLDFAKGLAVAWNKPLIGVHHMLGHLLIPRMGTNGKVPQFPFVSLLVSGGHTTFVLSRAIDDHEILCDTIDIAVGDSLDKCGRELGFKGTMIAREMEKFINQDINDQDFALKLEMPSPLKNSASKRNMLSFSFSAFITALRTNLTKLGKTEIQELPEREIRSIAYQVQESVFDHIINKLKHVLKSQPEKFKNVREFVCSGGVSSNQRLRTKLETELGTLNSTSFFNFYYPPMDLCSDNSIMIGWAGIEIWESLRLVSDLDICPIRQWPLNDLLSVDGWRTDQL
binder,measurement,setting,value
B1,Kd,TPRKB,28000 nM
same,Kd,mjCgi121 [1],730 nM
same,binding result,mjKae1,no binding
same,Kd,mjCgi121;mjBud32,229 nM
same,binding result,scQri7,no binding
same,Kd,TPRKB;PRPK,450 nM
same,Kd,mjCgi121;mjBud32;mjKae1,153 nM
same,Kd,TPRKB;PRPK;OSGEP;LAGE3,4300 nM
same,binding result,mjBud32,no binding
B2,binding result,mjCgi121 [2],binds
B3,binding result,mjCgi121 [2],no binding
